Reference: publication PMC9482650, “Quantitative fragmentomics allow affinity mapping of interactomes” (Nature Communications, 2022)

T1: LIN7A, O14910
T1 sequence (O14910 103-200, limits assumed, looked up): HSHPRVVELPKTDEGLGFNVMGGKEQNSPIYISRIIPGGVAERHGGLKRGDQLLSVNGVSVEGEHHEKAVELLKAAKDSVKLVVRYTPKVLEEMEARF

T2: MPDZ_12, O75970
T2 sequence (O75970 1857-1958, limits assumed, looked up): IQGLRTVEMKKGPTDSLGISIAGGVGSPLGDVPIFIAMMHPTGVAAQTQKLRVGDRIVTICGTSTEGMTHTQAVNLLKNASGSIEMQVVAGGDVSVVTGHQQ

T3: LNX2_2, Q8N448
T3 sequence (Q8N448 334-432, limits assumed, looked up): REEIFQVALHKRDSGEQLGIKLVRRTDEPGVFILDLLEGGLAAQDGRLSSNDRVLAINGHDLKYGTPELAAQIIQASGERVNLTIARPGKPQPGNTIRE

T4: PDZRN3_1, Q9UPQ7
T4 sequence (Q9UPQ7 244-349, limits assumed, looked up): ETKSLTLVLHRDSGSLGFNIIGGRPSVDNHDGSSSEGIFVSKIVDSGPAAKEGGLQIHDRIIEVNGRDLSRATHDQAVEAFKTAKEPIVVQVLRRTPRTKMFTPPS

T5: HTRA3, P83110
T5 sequence (P83110 354-453, limits assumed, looked up): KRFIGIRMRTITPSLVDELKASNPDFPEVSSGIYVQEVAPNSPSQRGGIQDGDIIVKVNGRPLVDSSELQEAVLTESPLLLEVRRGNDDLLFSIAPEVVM

T6: DFNB31_1, Q9P202
T6 sequence (Q9P202 135-233, limits assumed, looked up): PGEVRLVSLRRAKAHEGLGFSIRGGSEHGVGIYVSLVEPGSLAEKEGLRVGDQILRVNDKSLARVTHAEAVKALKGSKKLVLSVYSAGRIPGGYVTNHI

T7: DVL3, Q92997
T7 sequence (Q92997 244-331, limits assumed, looked up): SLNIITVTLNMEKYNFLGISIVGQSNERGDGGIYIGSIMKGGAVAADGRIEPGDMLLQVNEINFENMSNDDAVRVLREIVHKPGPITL

T8: GRIP1_2, Q9Y3R0
T8 sequence (Q9Y3R0 145-248, limits assumed, looked up): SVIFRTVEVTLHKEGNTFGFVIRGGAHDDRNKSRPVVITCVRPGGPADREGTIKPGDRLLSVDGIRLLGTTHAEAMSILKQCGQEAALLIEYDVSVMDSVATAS

T9: CARD11, Q9BXL7
T9 sequence (Q9BXL7 662-765, limits assumed, looked up): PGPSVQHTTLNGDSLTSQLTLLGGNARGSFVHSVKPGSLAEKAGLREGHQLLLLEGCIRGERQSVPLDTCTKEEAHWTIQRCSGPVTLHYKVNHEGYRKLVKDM

T10: PDZD7_3, Q9H5P4
T10 sequence (Q9H5P4 857-944, limits assumed, looked up): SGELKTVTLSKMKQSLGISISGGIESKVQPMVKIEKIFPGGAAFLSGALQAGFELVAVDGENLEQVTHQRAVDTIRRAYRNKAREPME

T11: APBA3_1, O96018
T11 sequence (O96018 389-490, limits assumed, looked up): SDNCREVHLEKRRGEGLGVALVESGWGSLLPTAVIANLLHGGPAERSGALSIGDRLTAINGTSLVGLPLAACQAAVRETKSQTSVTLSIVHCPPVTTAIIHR

B1: CLDN19, Q8N6F1 (peptide)
chain: PASAKGPLGV
B2: STK16, O75716 (peptide)
chain: PAPGQHTTQI
B3: SLC6A3, Q01959 (peptide)
chain: QFTLRHWLKV
B4: PPFIA1, Q13136 (peptide)
chain: DSATVRTYSC
B5: MARCHF4, Q9P2E8 (peptide)
chain: RELVMRVTTV

Tests used:
Assay in all cases: holdup assay
Set-up in all cases: key: below the threshold = too weak to quantify, mostly under pKd 3.1 to 4
Details in all cases: plain residues with an end cap or a label only (N-terminal biotin on a linker: ado-ado)
MAGI2_6, Q86UL8 = molecular target: MAGI2_6, Q86UL8
GORASP1, Q9BQQ3 = molecular target: GORASP1, Q9BQQ3
LIN7A, O14910 = molecular target: T1, LIN7A, O14910
MAGI1_1, Q96QZ7 = molecular target: MAGI1_1, Q96QZ7
MPDZ_12, O75970 = molecular target: T2, MPDZ_12, O75970
GRIP2_6, Q9C0E4 = molecular target: GRIP2_6, Q9C0E4
LNX2_2, Q8N448 = molecular target: T3, LNX2_2, Q8N448
Inadl_1, Q8NI35 = molecular target: Inadl_1, Q8NI35
MAGI2_5, Q86UL8 = molecular target: MAGI2_5, Q86UL8
TJP2_1, Q9UDY2 = molecular target: TJP2_1, Q9UDY2
PDZRN3_1, Q9UPQ7 = molecular target: T4, PDZRN3_1, Q9UPQ7
NHERF4_4, Q86UT5 = molecular target: NHERF4_4, Q86UT5
SCRIB_3, Q14160 = molecular target: SCRIB_3, Q14160
GORASP2, Q9H8Y8 = molecular target: GORASP2, Q9H8Y8
LAP2, Q96RT1 = molecular target: LAP2, Q96RT1
HTRA3, P83110 = molecular target: T5, HTRA3, P83110
DLG2_2, Q15700 = molecular target: DLG2_2, Q15700
Inadl_9, Q8NI35 = molecular target: Inadl_9, Q8NI35
DFNB31_1, Q9P202 = molecular target: T6, DFNB31_1, Q9P202
DVL3, Q92997 = molecular target: T7, DVL3, Q92997
GRIP1_2, Q9Y3R0 = molecular target: T8, GRIP1_2, Q9Y3R0
GRIP2_3, Q9C0E4 = molecular target: GRIP2_3, Q9C0E4
CARD11, Q9BXL7 = molecular target: T9, CARD11, Q9BXL7
GRIP2_7, Q9C0E4 = molecular target: GRIP2_7, Q9C0E4
PDZD7_3, Q9H5P4 = molecular target: T10, PDZD7_3, Q9H5P4
Inadl_4, Q8NI35 = molecular target: Inadl_4, Q8NI35
APBA3_1, O96018 = molecular target: T11, APBA3_1, O96018

Chain of Inadl_4, Q8NI35 (Q8NI35 547-651): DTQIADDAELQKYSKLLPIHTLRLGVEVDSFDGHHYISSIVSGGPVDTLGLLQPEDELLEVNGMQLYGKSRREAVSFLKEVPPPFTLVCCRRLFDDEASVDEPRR
Chain of SCRIB_3, Q14160 (Q14160 999-1103): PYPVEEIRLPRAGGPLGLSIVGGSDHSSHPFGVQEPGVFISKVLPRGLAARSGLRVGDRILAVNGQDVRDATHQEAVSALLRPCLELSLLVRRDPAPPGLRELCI
Chain of MAGI2_5, Q86UL8 (Q86UL8 915-1017): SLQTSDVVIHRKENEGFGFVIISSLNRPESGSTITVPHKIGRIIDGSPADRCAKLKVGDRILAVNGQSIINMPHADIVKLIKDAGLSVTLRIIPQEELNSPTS
Chain of Inadl_9, Q8NI35 (Q8NI35 1530-1615): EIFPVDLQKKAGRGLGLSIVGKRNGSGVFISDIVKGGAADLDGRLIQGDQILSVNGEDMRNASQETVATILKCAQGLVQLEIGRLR
Chain of TJP2_1, Q9UDY2 (Q9UDY2 24-128): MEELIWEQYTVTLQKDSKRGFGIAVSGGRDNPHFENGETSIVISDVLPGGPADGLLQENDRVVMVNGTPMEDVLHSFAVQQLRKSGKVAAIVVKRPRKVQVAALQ
Chain of MAGI2_6, Q86UL8 (Q86UL8 1141-1229): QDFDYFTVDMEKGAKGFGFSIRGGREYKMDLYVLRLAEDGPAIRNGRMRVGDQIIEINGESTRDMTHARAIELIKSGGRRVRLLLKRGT
Chain of MAGI1_1, Q96QZ7 (Q96QZ7 1-106): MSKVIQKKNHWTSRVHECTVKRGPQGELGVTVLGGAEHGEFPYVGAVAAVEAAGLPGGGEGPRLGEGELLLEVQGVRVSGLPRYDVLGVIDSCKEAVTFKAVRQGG
Chain of DLG2_2, Q15700 (Q15700 189-283): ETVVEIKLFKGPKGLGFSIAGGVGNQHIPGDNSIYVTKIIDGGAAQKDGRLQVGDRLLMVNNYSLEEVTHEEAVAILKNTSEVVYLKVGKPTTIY
Chain of GRIP2_7, Q9C0E4 (Q9C0E4 934-1023): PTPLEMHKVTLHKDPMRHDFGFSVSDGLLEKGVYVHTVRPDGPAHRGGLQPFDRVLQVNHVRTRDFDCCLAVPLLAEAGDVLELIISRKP
Chain of GORASP1, Q9BQQ3 (Q9BQQ3 1-208): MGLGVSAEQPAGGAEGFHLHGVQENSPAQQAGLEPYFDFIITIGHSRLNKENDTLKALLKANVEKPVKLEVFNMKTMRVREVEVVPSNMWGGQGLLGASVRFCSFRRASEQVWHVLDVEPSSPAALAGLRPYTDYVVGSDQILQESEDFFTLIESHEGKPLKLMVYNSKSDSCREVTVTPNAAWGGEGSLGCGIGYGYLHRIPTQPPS
Chain of GRIP2_6, Q9C0E4 (Q9C0E4 648-740): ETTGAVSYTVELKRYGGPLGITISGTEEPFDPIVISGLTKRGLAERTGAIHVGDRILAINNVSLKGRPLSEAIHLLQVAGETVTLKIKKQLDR
Chain of Inadl_1, Q8NI35 (Q8NI35 113-229): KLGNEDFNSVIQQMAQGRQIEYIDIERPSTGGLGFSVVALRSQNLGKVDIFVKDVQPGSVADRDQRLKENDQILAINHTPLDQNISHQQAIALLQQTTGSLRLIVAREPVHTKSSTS
Chain of LAP2, Q96RT1 (Q96RT1 other isoform, or with tags, fused parts or gaps): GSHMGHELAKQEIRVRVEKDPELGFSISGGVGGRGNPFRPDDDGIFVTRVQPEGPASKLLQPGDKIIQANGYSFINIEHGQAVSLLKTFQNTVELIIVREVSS
Chain of GRIP2_3, Q9C0E4 (Q9C0E4 238-339): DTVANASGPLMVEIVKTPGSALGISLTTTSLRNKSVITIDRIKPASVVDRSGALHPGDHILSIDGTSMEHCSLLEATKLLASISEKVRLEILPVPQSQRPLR
Chain of NHERF4_4, Q86UT5 (Q86UT5 464-550): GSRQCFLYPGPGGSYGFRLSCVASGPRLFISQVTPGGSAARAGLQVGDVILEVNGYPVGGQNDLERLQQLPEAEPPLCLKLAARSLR

Row | Binder | pKd (MAGI2_6, Q86UL8) | pKd (GORASP1, Q9BQQ3) | pKd (LIN7A, O14910) | pKd (MAGI1_1, Q96QZ7) | pKd (MPDZ_12, O75970) | pKd (GRIP2_6, Q9C0E4) | pKd (LNX2_2, Q8N448) | pKd (Inadl_1, Q8NI35) | pKd (MAGI2_5, Q86UL8) | pKd (TJP2_1, Q9UDY2) | pKd (PDZRN3_1, Q9UPQ7) | pKd (NHERF4_4, Q86UT5) | pKd (SCRIB_3, Q14160) | pKd (GORASP2, Q9H8Y8) | pKd (LAP2, Q96RT1) | pKd (HTRA3, P83110) | pKd (DLG2_2, Q15700) | pKd (Inadl_9, Q8NI35) | pKd (DFNB31_1, Q9P202) | pKd (DVL3, Q92997) | further results
1 | B1 | below the threshold | below the threshold | below the threshold | below the threshold | below the threshold | below the threshold | below the threshold | below the threshold | below the threshold | below the threshold | below the threshold | below the threshold | below the threshold | below the threshold | below the threshold | below the threshold | below the threshold | below the threshold | below the threshold | below the threshold | pKd (GRIP1_2, Q9Y3R0): below the threshold; pKd (GRIP2_3, Q9C0E4): below the threshold; pKd (CARD11, Q9BXL7): below the threshold; pKd (GRIP2_7, Q9C0E4): below the threshold; pKd (PDZD7_3, Q9H5P4): below the threshold; pKd (Inadl_4, Q8NI35): below the threshold; pKd (APBA3_1, O96018): below the threshold
2 | B2 | below the threshold | below the threshold | below the threshold | below the threshold | below the threshold | below the threshold | below the threshold | below the threshold | below the threshold | below the threshold | below the threshold | below the threshold | 4.18 | 3.54 | below the threshold | below the threshold | 3.79 | below the threshold | 4.57 | below the threshold | pKd (GRIP1_2, Q9Y3R0): below the threshold; pKd (GRIP2_3, Q9C0E4): below the threshold; pKd (CARD11, Q9BXL7): below the threshold; pKd (GRIP2_7, Q9C0E4): below the threshold; pKd (PDZD7_3, Q9H5P4): 5; pKd (Inadl_4, Q8NI35): below the threshold; pKd (APBA3_1, O96018): below the threshold
3 | B3 | below the threshold | 4.13 | below the threshold | below the threshold | below the threshold | 3.9 | 4.84 | below the threshold | below the threshold | below the threshold | below the threshold | 3.65 | 3.51 | 4.56 | below the threshold | below the threshold | below the threshold | below the threshold | 3.47 | below the threshold | pKd (GRIP1_2, Q9Y3R0): below the threshold; pKd (GRIP2_3, Q9C0E4): below the threshold; pKd (CARD11, Q9BXL7): below the threshold; pKd (GRIP2_7, Q9C0E4): below the threshold; pKd (PDZD7_3, Q9H5P4): below the threshold; pKd (Inadl_4, Q8NI35): below the threshold; pKd (APBA3_1, O96018): below the threshold
4 | B4 | below the threshold | below the threshold | below the threshold | below the threshold | below the threshold | 5.71 | 4.02 | below the threshold | below the threshold | below the threshold | below the threshold | below the threshold | below the threshold | 3.62 | below the threshold | 4.65 | below the threshold | below the threshold | 3.47 | below the threshold | pKd (GRIP1_2, Q9Y3R0): below the threshold; pKd (GRIP2_3, Q9C0E4): below the threshold; pKd (CARD11, Q9BXL7): below the threshold; pKd (GRIP2_7, Q9C0E4): 4.15; pKd (PDZD7_3, Q9H5P4): below the threshold; pKd (Inadl_4, Q8NI35): below the threshold; pKd (APBA3_1, O96018): below the threshold
5 | B5 | 4.55 | 4.36 | 3.7 | below the threshold | below the threshold | below the threshold | 5.27 | below the threshold | 4.05 | 3.86 | 3.77 | below the threshold | 4.73 | 5.54 | 3.79 | below the threshold | 5.2 | 3.82 | 3.97 | below the threshold | pKd (GRIP1_2, Q9Y3R0): below the threshold; pKd (GRIP2_3, Q9C0E4): below the threshold; pKd (CARD11, Q9BXL7): below the threshold; pKd (GRIP2_7, Q9C0E4): below the threshold; pKd (PDZD7_3, Q9H5P4): 5.28; pKd (Inadl_4, Q8NI35): below the threshold; pKd (APBA3_1, O96018): below the threshold
